Laboratory results reported in paper doi:10.1101/2024.05.29.596243 (bioRxiv, 2024).

Target: the molecule itself
Assay: cryo-electron tomography with subtomogram averaging

B1: H+-ATPase Pma1 (natural protein, UniProt Q6FXU5 1-902, looked up)
chain: MSDVESNNEKPPQDVYEDEEMSEDDDIDALIEELQSHHGMGDDDDSEDEGHHTGSARVVPEEYLQTDPSYGLTSDEVAHRRKKYGLNQMADERESMIVKFVMFFVGPIQFVMEAAAILAAGLSDWVDFGVICGLLMLNACVGFIQEFQAGSIVDELKKTLANVAVVIRDGQLVEVPANEVVPGDILQLEDGTIIPADGRLVTENCFLQVDQSAITGESLAVDKGYGDQTFSSSTVKRGEAFMVVTATGDNTFVGRAAALVNKASGGQGHFTEVLNGIGILLLVLVIVTLLGVWAACFYRTDNIVKILRFTLGITIIGVPVGLPAVVTTTMAVGAAYLAKKQAIVQKLSAIESLAGVEILCSDKTGTLTKNKLSLHEPYTVEGVSADDLMLTACLAASRKKKGLDAIDKAFLKSLINYPKAKDALTKYKVIEFHPFDPVSKKVTAVVESPEGERIVCVKGAPLFVLKTVEEDHPIPEDVHENYENKVAELASRGFRALGVARKRGEGHWEILGVMPCMDPPRDDTAETVNEARRLGLRVKMLTGDAVGIAKETCRQLGLGTNIYNAERLGLGGGGDMPGSELADFVENADGFAEVFPQHKYKVVEILQNRGYLVAMTGDGVNDAPSLKKADTGIAVEGASDAARSAADIVFLAPGLSAIIDALKTSRQIFHRMYSYVVYRIALSLHLELFLGLWIIILNHSLDIELIVFIAIFADVATLAIAYDNAPFSQTPVKWNLPRLWGMSIILGIVLAIGTWICLTTMFLPRGGIIQNFGSIDGVLFLQISLTENWLIFVTRAVGPFWSSIPSWQLAGAVFAVDIIATMFTLFGWFSQNWTDIVTVVKIYIWSIGVFCVLGGFYYIMSESVVFDRLMNGKPLKEEKSTRSVEDFLAAMQRVSTQHEKEN
For B1, the “stoichiometry N” value was 6.
